The values that follow come from FireProtDB (doi:10.1021/bi027116n).

Where “and” joins values, the source holds several entries; their conditions need not be identical. Equal values may be shown once.

The conditions of the series: Spinacia oleracea, reversible: no; for denaturant midpoint (higher = more stable): 20 °C, GdnHCl; for Tm: Thermal.

Ferredoxin-1, chloroplastic wild type, P00221, sequence (P00221 whole entry): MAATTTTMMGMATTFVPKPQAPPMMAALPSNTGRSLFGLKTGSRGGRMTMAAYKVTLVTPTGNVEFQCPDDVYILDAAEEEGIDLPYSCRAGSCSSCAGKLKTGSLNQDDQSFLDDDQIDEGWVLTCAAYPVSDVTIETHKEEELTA

The term Tm denotes the temperature at which the thermal transition is half complete. For the substance “Ferredoxin-1, chloroplastic wild type, P00221”, the “denaturant midpoint (higher = more stable)” value is, setting by setting: (pH 7, Absorbance, phosphate) 2.1 M and 1.7 M and 1.5 M; (pH 7, CD, phosphate) 2.1 M and 1.6 M; (pH 7, Emission, phosphate) 1.6 M; (pH 10, Absorbance, Glycine-OH) 3 M and 1.5 M; (pH 10, CD, Glycine-OH) 1.6 M; (pH 10, Emission, Glycine-OH) 1.6 M. Besides, the Tm (pH 7, Absorbance, Phosphate) is 70 °C and the Tm (pH 10, Absorbance, Glycine-OH) stood at 53 °C.
